Patent US20150322163A1 (OREGON HEALTH AND SCIENCE UNIVERSITY, published 2015)

What was measured:
Prekallikrein (PK) = Prekallikrein (PK) (UniProt P03952 20-638, limits assumed); experiment: Western blot
human factor XI = target: T1, human factor XI (human, UniProt P03951 19-625); experiment: Western blot of plasma
T1 construct: Disulfide-bonded homodimer of about 160 kDa; also called FXI; human FXI

baboon factor XI = baboon factor XI (baboon (Papio anubis)); experiment: cell-based or functional assay

T1 sequence (P03951 19-625 I95Y limits assumed): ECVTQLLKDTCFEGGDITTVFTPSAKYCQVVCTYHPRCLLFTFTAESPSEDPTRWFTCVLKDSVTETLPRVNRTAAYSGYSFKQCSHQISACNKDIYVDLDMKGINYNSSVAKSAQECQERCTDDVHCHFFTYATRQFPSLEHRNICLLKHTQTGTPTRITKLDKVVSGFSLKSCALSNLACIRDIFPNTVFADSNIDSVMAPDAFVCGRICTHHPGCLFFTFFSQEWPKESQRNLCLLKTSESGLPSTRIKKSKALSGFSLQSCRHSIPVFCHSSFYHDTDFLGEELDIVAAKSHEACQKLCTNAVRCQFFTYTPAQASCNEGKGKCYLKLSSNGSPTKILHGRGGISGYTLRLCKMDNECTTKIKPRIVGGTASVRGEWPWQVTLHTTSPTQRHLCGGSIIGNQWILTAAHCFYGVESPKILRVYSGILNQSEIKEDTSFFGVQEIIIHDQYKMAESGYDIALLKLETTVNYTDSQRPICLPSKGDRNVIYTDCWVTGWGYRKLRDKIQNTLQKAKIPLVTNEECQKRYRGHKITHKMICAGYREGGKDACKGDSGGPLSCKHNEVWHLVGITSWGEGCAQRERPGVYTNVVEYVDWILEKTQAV
Chain of Prekallikrein (PK) (P03952 20-638 limits assumed): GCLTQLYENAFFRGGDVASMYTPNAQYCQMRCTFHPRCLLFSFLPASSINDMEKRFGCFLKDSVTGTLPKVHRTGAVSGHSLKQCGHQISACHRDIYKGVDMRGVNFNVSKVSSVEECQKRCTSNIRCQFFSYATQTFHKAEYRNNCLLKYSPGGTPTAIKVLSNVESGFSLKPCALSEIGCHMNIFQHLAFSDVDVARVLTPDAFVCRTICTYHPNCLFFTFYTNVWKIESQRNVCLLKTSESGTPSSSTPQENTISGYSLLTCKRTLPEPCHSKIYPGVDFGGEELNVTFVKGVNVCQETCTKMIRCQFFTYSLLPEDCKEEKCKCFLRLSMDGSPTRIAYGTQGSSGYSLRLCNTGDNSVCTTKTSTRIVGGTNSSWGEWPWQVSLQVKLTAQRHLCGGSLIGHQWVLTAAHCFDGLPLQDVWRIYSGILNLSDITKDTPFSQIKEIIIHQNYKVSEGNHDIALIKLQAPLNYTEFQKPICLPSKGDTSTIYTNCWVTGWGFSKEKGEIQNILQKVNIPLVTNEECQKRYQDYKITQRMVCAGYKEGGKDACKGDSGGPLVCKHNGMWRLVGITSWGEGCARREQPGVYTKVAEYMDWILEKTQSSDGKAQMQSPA

binding result (Prekallikrein (PK)): no binding
binding result (human factor XI): binds
IC50 in a clotting assay using FXI deficient human plasma with serial dilutions of NBP as standards (baboon factor XI): 2.5 nM
B1: anti-factor XI monoclonal antibody 1A6 (aXIMab) (antibody, V domains shown)
VH: QVTLKESGPGILKPSQTLSLTCSFSGFSLSTSGMGVGWIRQPSGKGLEWLAHIWWDDDKYYNPSLKSQLTISKDTSRNQVFLKITSVDAADTATYYCARKRSSVVAHYYAMDYWGQGTSVTVSS
VL: DIVLTQSPASLAVSLGQRATISCKASQSVDYDGDSYLNWYQQKPGQPPKLLIYAASNLESGIPARFSGSGSGTDFTLNIHPVEEEDAATYYCQQSNGDPWTFGGGTKLEIK
notes: also called anti-FXI monoclonal antibody
